Measurements published in IntAct's records for PubMed 24418540.

Molecular target: pebb_human CBFB (UniProt Q13951)

Substance | effect of a mutation on the interaction
Virion infectivity factor (Human immunodeficiency virus type 1 group M subtype B (isolate HXB2) (HIV-1)), P69723 E88A;W89A | disrupting interaction strength
Virion infectivity factor (Human immunodeficiency virus type 1 group M subtype B (isolate HXB2) (HIV-1)), P69723 W21A | disrupting interaction strength
Virion infectivity factor (Human immunodeficiency virus type 1 group M subtype B (isolate HXB2) (HIV-1)), P69723 W38A | decreasing interaction strength
Virion infectivity factor (Human immunodeficiency virus type 1 group M subtype B (isolate HXB2) (HIV-1)), P69723 W89A | disrupting interaction strength
Virion infectivity factor (Human immunodeficiency virus type 1 group M subtype B (isolate HXB2) (HIV-1)), P69723 Y69A | decreasing interaction strength
